Results taken from publication PMC8044443, “M. bovis BCG Moreau N-Terminal Loss Leads to a Less Stable Dodecin With Lower Flavin Binding Capacity” (Frontiers in Cellular and Infection Microbiology, 2021).
Where two headings read alike, the source gives them in different places.

Legend:
[1] = target: Native M. bovis BCG Moreau dodecin (M. bovis BCG Moreau (endogenous)); test: SDS-PAGE and western blotting of oligomer bands; logarithmic phase mycobacterial lysates incubated 30 min at 40 or 80 °C, supernatants on SDS-PAGE, blot with anti-dodecin serum
[2] = target: Native M. bovis BCG Moreau dodecin (M. bovis BCG Moreau (endogenous)); test: SDS-PAGE and western blotting of oligomer bands; 20 ug total proteins of mycobacterial whole cell lysates (lag, logarithmic and stationary phase; 50 mM HEPES/KOH pH 7.5, 10 mM MgCl2, 60 mM NH4Cl, 10% glycerol), 15% SDS-PAGE, blot with anti-dodecin serum
[3] = target: Recombinant M. bovis BCG Moreau dodecin with C-terminal 6-His tag (M. bovis BCG Moreau); test: SDS-PAGE and western blotting of oligomer bands
[4] = target: Recombinant M. bovis BCG Moreau dodecin with C-terminal 6-His tag (M. bovis BCG Moreau); test: SDS-PAGE and western blotting of oligomer bands; remark: listed apart in the source
[5] = target: Recombinant M. tuberculosis H37Rv dodecin with C-terminal 6-His tag (Mycobacterium tuberculosis H37Rv) (UniProt I6XY36); test: SDS-PAGE and western blotting of oligomer bands
[6] = target: Recombinant M. tuberculosis H37Rv dodecin with C-terminal 6-His tag (Mycobacterium tuberculosis H37Rv) (UniProt I6XY36); test: SDS-PAGE and western blotting of oligomer bands; remark: listed apart in the source
[7] = target: the molecule itself; test: SDS-PAGE and western blotting of oligomer bands; 20 ug total proteins of mycobacterial whole cell lysates (lag, logarithmic and stationary phase; 50 mM HEPES/KOH pH 7.5, 10 mM MgCl2, 60 mM NH4Cl, 10% glycerol), 15% SDS-PAGE, blot with anti-dodecin serum

**Q.** Which stoichiometry N [1] does the source give for “Native M. bovis BCG Moreau dodecin (natural protein)” here?
**A.** 6

**Q.** And the stoichiometry N [2]?
**A.** 6

**Q.** How did the stoichiometry N [3] turn out when “Recombinant M. bovis BCG Moreau dodecin with C-terminal 6-His tag (natural protein)” was run?
**A.** 12

**Q.** What about the stoichiometry N [4] of the same molecule?
**A.** 4

**Q.** For “Recombinant M. tuberculosis H37Rv dodecin with C-terminal 6-His tag (from UniProt I6XY36 1-70) (natural protein)”, which stoichiometry N [5] is on record?
**A.** 4

**Q.** What about the stoichiometry N [6] of the same molecule?
**A.** 12

B1: Native M. tuberculosis H37Rv dodecin (natural protein)
chain: MSNHTYRVIEIVGTSPDGVDAAIQGGLARAAQTMRALDWFEVQSIRGHLVDGAVAHFQVTMKVGFRLEDS
notes: also called M.tb native dodecin; Tb
**Q.** B1 was tested. Which “stoichiometry N” value [7] did it give?
**A.** 6
